Experimental data taken from the Human Domainome abundance scans (Beltran et al. 2025).
± gives the uncertainty stated by the source.

B1: Ras GTPase-activating protein 1, residues 281 to 341; numbered along this chain, P20936 (parent)
chain: RRRVRAILPYTKVPDTDEISFLKGDMFIVHNELEDGWMWVTNLRTDEQGLIVEDLVEEVGR

Variants of: B1
Assay: abundance fitness (aPCA) (normalised: wild type 0, dead -1); higher = more abundant; growth selection in yeast, the domain comes from the species named
Settings: Homo sapiens

Variant	abundance fitness
RRRVRAILAYTKVPDTDEISFLKGDMFIVHNELEDGWMWVTNLRTDEQGLIVEDLVEEVGR	-0.026 ± 0.039
RRRVRWILPYTKVPDTDEISFLKGDMFIVHNELEDGWMWVTNLRTDEQGLIVEDLVEEVGR	-0.953 ± 0.051
RRRVRQILPYTKVPDTDEISFLKGDMFIVHNELEDGWMWVTNLRTDEQGLIVEDLVEEVGR	-0.915 ± 0.061
RRRVRRILPYTKVPDTDEISFLKGDMFIVHNELEDGWMWVTNLRTDEQGLIVEDLVEEVGR	-0.908 ± 0.029
RRRVRNILPYTKVPDTDEISFLKGDMFIVHNELEDGWMWVTNLRTDEQGLIVEDLVEEVGR	-0.908 ± 0.032
RRRVRTILPYTKVPDTDEISFLKGDMFIVHNELEDGWMWVTNLRTDEQGLIVEDLVEEVGR	-0.84 ± 0.034
RRRVRLILPYTKVPDTDEISFLKGDMFIVHNELEDGWMWVTNLRTDEQGLIVEDLVEEVGR	-0.896 ± 0.029
RRRVRSILPYTKVPDTDEISFLKGDMFIVHNELEDGWMWVTNLRTDEQGLIVEDLVEEVGR	-0.258 ± 0.02
RRRVRPILPYTKVPDTDEISFLKGDMFIVHNELEDGWMWVTNLRTDEQGLIVEDLVEEVGR	-1.04 ± 0.05
RRRVRIILPYTKVPDTDEISFLKGDMFIVHNELEDGWMWVTNLRTDEQGLIVEDLVEEVGR	-0.885 ± 0.031
RRRVRMILPYTKVPDTDEISFLKGDMFIVHNELEDGWMWVTNLRTDEQGLIVEDLVEEVGR	-0.804 ± 0.05
RRRVRVILPYTKVPDTDEISFLKGDMFIVHNELEDGWMWVTNLRTDEQGLIVEDLVEEVGR	-0.899 ± 0.028
RRRVRAKLPYTKVPDTDEISFLKGDMFIVHNELEDGWMWVTNLRTDEQGLIVEDLVEEVGR	0.037 ± 0.072
RRRVRAALPYTKVPDTDEISFLKGDMFIVHNELEDGWMWVTNLRTDEQGLIVEDLVEEVGR	-0.63 ± 0.054
RRRVRAGLPYTKVPDTDEISFLKGDMFIVHNELEDGWMWVTNLRTDEQGLIVEDLVEEVGR	-0.735 ± 0.044
RRRVRATLPYTKVPDTDEISFLKGDMFIVHNELEDGWMWVTNLRTDEQGLIVEDLVEEVGR	-0.088 ± 0.047
RRRVRASLPYTKVPDTDEISFLKGDMFIVHNELEDGWMWVTNLRTDEQGLIVEDLVEEVGR	-0.236 ± 0.027
RRRVRANLPYTKVPDTDEISFLKGDMFIVHNELEDGWMWVTNLRTDEQGLIVEDLVEEVGR	-0.292 ± 0.032
RRRVRAMLPYTKVPDTDEISFLKGDMFIVHNELEDGWMWVTNLRTDEQGLIVEDLVEEVGR	-0.167 ± 0.065
RRRVRAELPYTKVPDTDEISFLKGDMFIVHNELEDGWMWVTNLRTDEQGLIVEDLVEEVGR	-0.551 ± 0.1
RRRVRADLPYTKVPDTDEISFLKGDMFIVHNELEDGWMWVTNLRTDEQGLIVEDLVEEVGR	-1.01 ± 0.08
RRRVRARLPYTKVPDTDEISFLKGDMFIVHNELEDGWMWVTNLRTDEQGLIVEDLVEEVGR	-0.055 ± 0.034

Variant	abundance fitness
RRRVRAHLPYTKVPDTDEISFLKGDMFIVHNELEDGWMWVTNLRTDEQGLIVEDLVEEVGR	-0.305 ± 0.036
RRRVRACLPYTKVPDTDEISFLKGDMFIVHNELEDGWMWVTNLRTDEQGLIVEDLVEEVGR	-0.231 ± 0.029
RRRVRAQLPYTKVPDTDEISFLKGDMFIVHNELEDGWMWVTNLRTDEQGLIVEDLVEEVGR	-0.473 ± 0.11
RRRVRAYLPYTKVPDTDEISFLKGDMFIVHNELEDGWMWVTNLRTDEQGLIVEDLVEEVGR	-0.366 ± 0.032
RRRVRALLPYTKVPDTDEISFLKGDMFIVHNELEDGWMWVTNLRTDEQGLIVEDLVEEVGR	-0.066 ± 0.03
RRRVRAIRPYTKVPDTDEISFLKGDMFIVHNELEDGWMWVTNLRTDEQGLIVEDLVEEVGR	-0.059 ± 0.031
RRRVRAIAPYTKVPDTDEISFLKGDMFIVHNELEDGWMWVTNLRTDEQGLIVEDLVEEVGR	0.074 ± 0.034
RRRVRAIPPYTKVPDTDEISFLKGDMFIVHNELEDGWMWVTNLRTDEQGLIVEDLVEEVGR	-0.99 ± 0.094
RRRVRAIYPYTKVPDTDEISFLKGDMFIVHNELEDGWMWVTNLRTDEQGLIVEDLVEEVGR	-0.084 ± 0.026
RRRVRAIEPYTKVPDTDEISFLKGDMFIVHNELEDGWMWVTNLRTDEQGLIVEDLVEEVGR	-0.067 ± 0.062
RRRVRAISPYTKVPDTDEISFLKGDMFIVHNELEDGWMWVTNLRTDEQGLIVEDLVEEVGR	-0.03 ± 0.025
RRRVRAICPYTKVPDTDEISFLKGDMFIVHNELEDGWMWVTNLRTDEQGLIVEDLVEEVGR	-0.052 ± 0.026
RRRVRAIWPYTKVPDTDEISFLKGDMFIVHNELEDGWMWVTNLRTDEQGLIVEDLVEEVGR	-0.194 ± 0.043
RRRVRAIQPYTKVPDTDEISFLKGDMFIVHNELEDGWMWVTNLRTDEQGLIVEDLVEEVGR	-0.052 ± 0.058
RRRVRAIMPYTKVPDTDEISFLKGDMFIVHNELEDGWMWVTNLRTDEQGLIVEDLVEEVGR	0.044 ± 0.044
RRRVRAIDPYTKVPDTDEISFLKGDMFIVHNELEDGWMWVTNLRTDEQGLIVEDLVEEVGR	-0.149 ± 0.033
RRRVRAIKPYTKVPDTDEISFLKGDMFIVHNELEDGWMWVTNLRTDEQGLIVEDLVEEVGR	-0.129 ± 0.054
RRRVRAIFPYTKVPDTDEISFLKGDMFIVHNELEDGWMWVTNLRTDEQGLIVEDLVEEVGR	-0.075 ± 0.027
RRRVRAIGPYTKVPDTDEISFLKGDMFIVHNELEDGWMWVTNLRTDEQGLIVEDLVEEVGR	-0.012 ± 0.026
RRRVRAINPYTKVPDTDEISFLKGDMFIVHNELEDGWMWVTNLRTDEQGLIVEDLVEEVGR	-0.102 ± 0.028
RRRVRAIHPYTKVPDTDEISFLKGDMFIVHNELEDGWMWVTNLRTDEQGLIVEDLVEEVGR	-0.037 ± 0.032
RRRVRAIVPYTKVPDTDEISFLKGDMFIVHNELEDGWMWVTNLRTDEQGLIVEDLVEEVGR	-0.039 ± 0.027
